Five molecules from patent publication US8404644B2, “Agents with angiogenic and wound healing activity” (Meat & Livestock Australia Limited, priority 2007, dated 2013) can be followed below.

For one data set, the target named is T1, elastase I (Sus scrofa, UniProt P00772).
T1 construct: purchased Worthington Biochemical Corporation 2280
Briefly: Chaperone activity: protection of elastase I from heat denaturation. The format is biochemical. The note with it: boiling water bath for 30 seconds. On the procedure:
Bovine crystallin fractions were tested for ability to protect the proteases elastase I, trypsin and chymotrypsin from heat denaturation. Briefly, the proteases were heated in a boiling water bath for 30 seconds in the presence or absence of the crystallin fractions.

Data set [1] in a line: Body weight during wound healing assay (Example 3.6). Format: in vivo, male Lewis rats. The note with it: PBS control returned by day 11. The method, then:
(§1) Body weights were measured on days 1, 3, 5, 7, 9, 11, 13, 15, 17, 19, 21 and 23 and deviations from original body weights (on day 1) calculated for each animal. On the same days, photographs were taken using a Canon Digital Eos 20D with a F2.8 Macro lens. Photographs were downloaded and wound areas measured using NIH Image J 1.633u software (National Institutes of Health (NIH), Rockville Pike, Bethesda, Md., United States). A laser speckle image was also taken at the same time as each space photograph was taken. Animals were weighed every second day when the photographic record of wound closure rate was also made.

Another data set relates to rat aortic ring. Nature of the data set: Rat aortic ring angiogenesis assay (Example 4.3). The conditions noted are these: for % of Control: microvessel growth. Format: cell-based, Lewis rat. The method, then: Four separate studies were carried out to determine the angiogenic effect of crystallin preparations. Each sample was assayed in triplicate. A positive control (VEGF) and a vehicle control containing PBS was also run in triplicate. […] Preliminary statistical significance was assessed with an independent Student t-test at α<0.05. Graphical representation of averages +/− standard errors were determined.
The first study investigated the angiogenic potential of bovine fractions prepared by gel filtration analysis as described in Example 3.2. As described in that Example, the alpha fraction contained αA and αB crystallin, the β H fraction contained all β crystallins, the β L1 fractions contained a sub-fraction of beta crystallins and a high content of βB2 crystallin and beta B3 crystallin and the beta L2 fraction contained only βB2 crystallin and βA3 crystallin.
The second study investigated the angiogenic potential of purified crystallin proteins. Briefly, βB3 crystallin was prepared by heating (97-99° C. for 3 minutes, supernatant collected by centrifugation) and was essentially homogenous. Alpha A crystallin and αB crystallin samples were prepared by ion exchange chromatography as described above and were also essentially homogenous. The Wound Heal 1-3 preparations were also tested in this study.
The third study investigated the angiogenic potential of ovine crystallin proteins compared to their bovine equivalents. Both bovine and ovine crystallin proteins were purified essentially to homogeneity by RP. HPLC using a C4 column, as described below in Example 5. Homogeneity was confirmed by SDS-PAGE. The effect of elastase I treatment of βB2 crystallin was also investigated by comparing the angiogenic potential of intact βB2 crystallin (i.e. undigested) with elastase I digested βB2 crystallin. Elastase I treatment releases the N-terminal and C-terminal extensions of the crystallin protein leaving a globular protein that is monomeric.
In the final study, ovine βB2 crystallin was tested alone or in combination with indoleamine 2,3-dioxygenase (IDO) and ovine alpha B crystallin was tested alone or in combination with tryptophan dioxygenase (TDO)
Briefly, in each study, a single Lewis rat was euthanised and its aorta transferred to a 15 mL Falcon tube containing 10 mL of MCBD-131 medium and stored on ice. After transferring the aorta to a 92×17 mm petri dish containing 10 mL of ice cold MCDB-131, the outer fatty tissue was removed under an Olympus SZ-60 Dissecting microscope. This was undertaken with fibre optic lamp illumination. The aorta was then cut into sequential rings approximately 2 mm in size. Connective tissue was removed with micro scissors and forceps from the outside of the individual rings. Clean rings were stored in a separate petri dish in sterile MCDB-131 medium. Rings were pre-incubated overnight at 37° C. in an atmosphere of 97% air/3% CO2.
To prepare gel sandwiches, 75 mg of fibrinogen was added to 25 mL MCDB-131 medium and shaken gently on a rocker roller for 5 minutes. 3 ml of MCDB-131/fibrinogen solution was added to a 15 mL Falcon tube, followed by 10 μL of thrombin and quickly mixed. A 0.4 mL volume of this fibrinogen-thrombin solution was added to each well on a 24 well plate, 6 wells at a time. Aortic rings were then placed on the setting gel, pushed gently into the gel and left for 45 minutes. These steps were then repeated so each ring was covered with 0.4 mL of gel. Gels were left to set at room temperature. […] The plate was then placed in incubator (37° C., 97% air/3% CO2).
Culture plate were examined daily for signs of infection (fungal growth or yellowing of media) in the wells using an inverted microscope. The growth of microvessels from their perimeters was also observed. Digital photographs of each well were taken seven days after plating using a Pixera PVC-100C digital camera mounted on an OLYMPUS CK-12 microscope and stored on a Macintosh Computer. […]

Data set [2] concerns full thickness 12 mm wound. Briefly: Wound healing assay (Example 3.6). The format is in vivo, male Lewis rats. The conditions noted are these: for Wound areas: mg/wound: Wound heal 1 0.01, Wound heal 2 0.1, Wound heal 3 1.0, Aloe vera 20. The method, then:
Thirty male Lewis rats were divided into 5 groups of 6 rats as outlined below in Table 7. Rats were age and weight matched. Rats were permitted rodent diet and water ad libitum throughout the study.
The animals were weighed two days before the start of the trial and weights grouped from lightest to heaviest. Animals were then randomly assigned to groups based on body weights, using 5×5 Latin squares so that group means were as similar as possible.
Approximately 30 minutes before wounding, each animal was given a subcutaneous injection of Temgesic at the base of the neck (0.075 mg/kg body weight). Each animal was anaesthetised using 3% halothane in oxygen. Once the pedal reflexes had been abolished, the animals were shaved from the base of the skull to the hind limb area using electric clippers. The skin on each rat was disinfected using 0.5% chlorhexidine in 70% ethanol. For each animal, the distance from the base of the skull to the top of the hip joint was measured and the wound position marked with a black felt tip pen, 6 cm below the base of the skull along the spinal axis.
Using asceptic techniques a full thickness incision was made at this position using a sterile 12 mm biopsy punch. Any bleeding was removed using cotton swabs. Care was taken that the punch was dry and that no debris (eg., skin, hair) entered the wounds. […] After photography of each wound using a Canon Digital EOS 20D camera with a F2.8 Macro lens, an aliquot of the sample was applied to the wounds on the rats in Groups A, B, D and E using a Gilson Microman CP 100 positive displacement pipette. The biopsy punch was wiped inside with a swab soaked in sterile saline to remove any tissue fluids and/or debris. The punch was then immersed in 70% ethanol before use on the next animal.
For applications and photographs after day 1 the animals were restrained without being anaesthetised.
as §1
The redness and swelling of each wound were individually scored from visual observation. These were scored on a scale of 0-3 as follows:
Descriptive statistics were evaluated. […] Major analyses were performed on all data points collected. Preliminary analyses were undertaken on control wounds only using t-tests. Univariate ANOVAs were used to assess differences between treatment and controls and samples nested within treatments. A separate ANOVA assessed whether there was a dose response using the treatment samples only. Assumptions for normality were tested using q-q plots on studentized residuals and heterogeneity of variances were tested using Levene's tests. SPSS 11 for Mac OSX was used for assumption testing and statistical analysis.

The mark [3] stands for this setting: summary of second and third study.

T1 sequence (P00772 27-266): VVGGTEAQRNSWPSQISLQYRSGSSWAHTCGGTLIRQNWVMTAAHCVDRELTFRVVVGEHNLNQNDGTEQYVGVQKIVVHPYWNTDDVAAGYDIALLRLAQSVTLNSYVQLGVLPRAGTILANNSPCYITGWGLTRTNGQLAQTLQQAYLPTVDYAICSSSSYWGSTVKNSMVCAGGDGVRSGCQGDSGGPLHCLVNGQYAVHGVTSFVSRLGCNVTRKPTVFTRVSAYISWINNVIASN

B1: Wound Heal 1: bovine βB2 crystallin, fractionated at pH 5.3 on Sephacryl 300 HR; Group B of Example 3, 0.01 mg/wound (protein)
chain: ASDHQTQAGKPQPLNPKIIIFEQENFQGHSHELNGPCPNLKETGVEKAGSVLVQAGPWVGYEQANCKGEQFVFEKGEYPRWDSWTSSRRTDSLSSLRPIKVDSQEHKITLYENPNFTGKKMEVIDDDVPSFHAHGYQEKVSSVRVQSGTWVGYQYPGYRGLQYLLEKGDYKDSGDFGAPQPQVQSVRRIRDMQWHQRGAFHPSS
On to B1, for which the “chaperone activity: protection of elastase I from heat denaturation (in words)” value in the data set with elastase I is on record as “not”. For the same molecule, in data set [1], the “day by which mean body weight had returned to the starting (pre-wounding) weight” value was no more than 14 days. Moreover, the “% of Control” value in the data set on rat aortic ring (second study, 200 μg/mL) turned out to be 94.52%. The Wound areas came out at 100 in data set [2] (Day 1 (=100)); 86 in data set [2] (Day 3); 75 in data set [2] (Day 5); 69 in data set [2] (Day 7); 54 in data set [2] (Day 9); 32 in data set [2] (Day 11). Further, the Wound areas was 18 in data set [2] (Day 13); 13 in data set [2] (Day 15); 8 in data set [2] (Day 17); 4 in data set [2] (Day 19); 1.7 in data set [2] (Day 21); 1.4 in data set [2] (Day 23). In addition, the mean wound area in data set [2] (day 5) is 123 ± 14.7 mm². The “wound area at day 5, statistical significance” value in data set [2] (day 5, p=0.045 (Wound Heal 1), p=0.008 (Wound Heal 2)) is “significantly smaller”. Also, in data set [2] (rat, in vivo), the “healing rate compared to Control group (PBS), in words” value is on record as “slightly faster healing rate than the reference group over the first 7 days”.

B2: Bovine βB2 crystallin (non-elastase treated): intact bovine βB2 crystallin prepared by RP HPLC on C4 column (protein, UniProt P02522 2-205, looked up)
Beta-crystallin B2: ASDHQTQAGKPQPLNPKIIIFEQENFQGHSHELNGPCPNLKETGVEKAGSVLVQAGPWVGYEQANCKGEQFVFEKGEYPRWDSWTSSRRTDSLSSLRPIKVDSQEHKITLYENPNFTGKKMEVIDDDVPSFHAHGYQEKVSSVRVQSGTWVGYQYPGYRGLQYLLEKGDYKDSGDFGAPQPQVQSVRRIRDMQWHQRGAFHPSS
In the case of B2, the “angiogenic activity (in words)” value in the data set with rat aortic ring (setting [3]) is “not angiogenic”. Further, the “% of Control” value in the data set on rat aortic ring (third study, 100 μg/mL) stood at 93.4%.

B3: Ovine βB2 crystallin: intact ovine βB2 crystallin prepared by RP HPLC on C4 column (protein)
chain: ASDHQTQAGKPQPLNPKIIIFEQENFQGHSHELNGPCPNLKETGVEKAGSVLVQAGPWVGYEQANCKGEQFVFEKGEYPRWDSWTSSRRTDSLSSLRPIKVDSQEHKITLYENPNFTGKKMEVIDDDVPSFHAHGYQEKVSSVRVQSGTWVGYQYPGYRGLQYLLEKGDYKDSGDFGAPQPQVQSVRRIRDMQWHQRGAFHPS
On to B3, for which, in the data set with rat aortic ring (setting [3]), the “angiogenic activity (in words)” value is given as “not angiogenic”. In addition, in the data set with rat aortic ring (third study, 100 μg/mL), the “% of Control” value is 103.5%.

B4: Bovine αB crystallin: bovine αB crystallin prepared by ion exchange chromatography, essentially homogenous (protein)
chain: MDIAIHHPWIRRPFFPFHSPSRLFDQFFGEHLLESDLFPASTSLSPFYLRPPSFLRAPSWIDTGLSEMRLEKDRFSVNLDVKHFSPEELKVKVLGDVIEVHGKHEERQDEHGFISREFHRKYRIPADVDPLAITSSLSSDGVLTVNGPRKQASGPERTIPITREEKPAVTAAPKK
B4: the “chaperone activity: protection of elastase I from heat denaturation (in words)” value with elastase I is reported as “able to protect elastase I from heat inactivation”. Further, the “% of Control” value in the data set with rat aortic ring (second study, 200 μg/mL) is reported as 85.21%.

B5: Tryptophan dioxygenase TDO: tryptophan hydrolyzing enzyme (protein, UniProt P48775 1-406, looked up)
Tryptophan 2,3-dioxygenase: MSGCPFLGNNFGYTFKKLPVEGSEEDKSQTGVNRASKGGLIYGNYLHLEKVLNAQELQSETKGNKIHDEHLFIITHQAYELWFKQILWELDSVREIFQNGHVRDERNMLKVVSRMHRVSVILKLLVQQFSILETMTALDFNDFREYLSPASGFQSLQFRLLENKIGVLQNMRVPYNRRHYRDNFKGEENELLLKSEQEKTLLELVEAWLERTPGLEPHGFNFWGKLEKNITRGLEEEFIRIQAKEESEEKEEQVAEFQKQKEVLLSLFDEKRHEHLLSKGERRLSYRALQGALMIYFYREEPRFQVPFQLLTSLMDIDSLMTKWRYNHVCMVHRMLGSKAGTGGSSGYHYLRSTVSDRYKVFVDLFNLSTYLIPRHWIPKMNPTIHKFLYTAEYCDSSYFSSDESD
Turning to B5, in the data set on rat aortic ring (forth study, 100 μg/mL), the “angiogenic activity (in words)” value was “stimulatory” and the “% of Control” value was found to be 106.2%.
